Assay results as given in US20220411487A1 (Regeneron, published 2022).
Substitutions are numbered along the chain they refer to. Numbers in names are those of the source.

Experiments:
Test in all cases: cell-based or functional assay
[1] = target: T1, full length human TMPRSS6 with a C-terminal triple myc tag on HEK293.hHJV cells (HEK293.hHJV/3xMyc.hTMPRSS6) (human, UniProt Q8IU80 1-811)
T1 sequence: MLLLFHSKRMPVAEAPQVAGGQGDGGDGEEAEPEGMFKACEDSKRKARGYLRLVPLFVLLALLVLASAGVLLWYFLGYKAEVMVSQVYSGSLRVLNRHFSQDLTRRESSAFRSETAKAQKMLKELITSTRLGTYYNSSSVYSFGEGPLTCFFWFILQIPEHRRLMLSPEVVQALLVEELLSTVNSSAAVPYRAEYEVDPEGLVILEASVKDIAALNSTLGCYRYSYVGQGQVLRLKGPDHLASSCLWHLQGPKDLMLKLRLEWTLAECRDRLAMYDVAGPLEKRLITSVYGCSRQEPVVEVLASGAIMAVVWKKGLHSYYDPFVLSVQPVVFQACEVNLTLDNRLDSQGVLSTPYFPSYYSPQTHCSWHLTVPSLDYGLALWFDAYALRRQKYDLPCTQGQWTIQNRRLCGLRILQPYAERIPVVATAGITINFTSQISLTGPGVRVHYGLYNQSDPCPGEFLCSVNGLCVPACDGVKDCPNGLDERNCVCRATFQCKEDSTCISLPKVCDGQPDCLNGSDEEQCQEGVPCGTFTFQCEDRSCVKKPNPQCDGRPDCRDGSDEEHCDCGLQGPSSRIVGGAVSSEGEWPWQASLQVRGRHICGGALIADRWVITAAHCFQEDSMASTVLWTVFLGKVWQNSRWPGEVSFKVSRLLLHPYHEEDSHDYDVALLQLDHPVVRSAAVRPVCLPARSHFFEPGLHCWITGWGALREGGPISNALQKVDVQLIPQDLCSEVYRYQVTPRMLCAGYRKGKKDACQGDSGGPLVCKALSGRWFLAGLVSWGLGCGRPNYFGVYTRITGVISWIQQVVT

[2] = target: T2, full-length mouse TMPRSS6 with a C-terminal triple myc tag on HEK293.hHJV cells (HEK293.hHJV/3xMyc.mTMPRSS6) (mouse, UniProt Q9DBI0 1-811)
T2 sequence: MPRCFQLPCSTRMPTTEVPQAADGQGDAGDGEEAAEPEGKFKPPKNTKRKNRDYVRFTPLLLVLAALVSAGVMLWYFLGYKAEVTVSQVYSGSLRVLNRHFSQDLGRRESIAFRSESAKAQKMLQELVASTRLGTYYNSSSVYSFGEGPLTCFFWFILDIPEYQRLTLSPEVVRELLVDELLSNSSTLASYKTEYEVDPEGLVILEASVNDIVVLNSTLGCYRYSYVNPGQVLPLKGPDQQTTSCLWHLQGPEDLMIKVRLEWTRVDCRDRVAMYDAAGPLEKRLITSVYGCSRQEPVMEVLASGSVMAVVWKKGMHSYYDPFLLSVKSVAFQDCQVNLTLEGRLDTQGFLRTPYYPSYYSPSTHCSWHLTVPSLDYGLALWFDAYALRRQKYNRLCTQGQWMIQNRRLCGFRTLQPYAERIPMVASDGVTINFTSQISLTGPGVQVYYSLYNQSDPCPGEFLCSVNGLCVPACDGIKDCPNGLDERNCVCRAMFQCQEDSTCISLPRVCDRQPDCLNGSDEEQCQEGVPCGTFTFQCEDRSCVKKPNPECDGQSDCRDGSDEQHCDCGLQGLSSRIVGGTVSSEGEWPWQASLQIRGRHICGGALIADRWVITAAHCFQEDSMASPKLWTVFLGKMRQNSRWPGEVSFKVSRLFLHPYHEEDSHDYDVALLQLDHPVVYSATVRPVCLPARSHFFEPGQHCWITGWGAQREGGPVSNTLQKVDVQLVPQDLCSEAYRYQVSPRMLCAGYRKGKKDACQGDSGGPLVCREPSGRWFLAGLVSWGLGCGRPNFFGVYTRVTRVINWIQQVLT

[3] = target: T1, full length human TMPRSS6 with a …; remark: listed apart in the source
[4] = target: T2, full-length mouse TMPRSS6 with a …; remark: listed apart in the source
[5] = target: T3, full length human TMPRSS6 on HEK293 cells (HEK293/hTMPRSS6) (human, UniProt Q8IU80 10-811)
T3 sequence (looked up): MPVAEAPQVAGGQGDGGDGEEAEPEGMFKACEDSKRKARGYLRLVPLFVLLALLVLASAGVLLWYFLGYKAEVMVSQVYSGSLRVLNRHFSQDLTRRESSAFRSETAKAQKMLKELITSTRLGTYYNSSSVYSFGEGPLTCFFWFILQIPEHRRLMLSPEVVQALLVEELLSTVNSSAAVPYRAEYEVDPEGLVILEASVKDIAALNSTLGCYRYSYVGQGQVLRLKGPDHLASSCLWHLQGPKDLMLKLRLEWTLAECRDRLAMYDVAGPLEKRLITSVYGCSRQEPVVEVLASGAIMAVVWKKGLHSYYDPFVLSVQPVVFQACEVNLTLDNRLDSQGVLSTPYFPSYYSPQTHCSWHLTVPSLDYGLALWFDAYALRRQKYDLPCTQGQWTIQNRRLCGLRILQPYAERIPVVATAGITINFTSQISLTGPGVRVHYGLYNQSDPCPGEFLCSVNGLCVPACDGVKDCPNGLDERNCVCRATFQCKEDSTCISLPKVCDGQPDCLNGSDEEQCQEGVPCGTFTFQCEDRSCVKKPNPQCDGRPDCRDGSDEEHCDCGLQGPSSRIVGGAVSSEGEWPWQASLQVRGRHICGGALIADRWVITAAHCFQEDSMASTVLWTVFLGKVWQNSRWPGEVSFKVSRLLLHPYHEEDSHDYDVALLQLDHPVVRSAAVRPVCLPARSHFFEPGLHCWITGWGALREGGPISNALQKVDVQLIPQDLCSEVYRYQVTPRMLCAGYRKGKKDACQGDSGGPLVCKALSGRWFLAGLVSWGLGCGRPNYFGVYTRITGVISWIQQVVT

B1: REGN7999 (antibody, human IgG4 S228P, kappa, V domains shown)
VH: EVQLVESGGGLVQPGGSLRLSCAASGFTFSSYAMTWVRQAPGKGLEWVSAISGSDTSTYYADSVKGRFTISRDNSKNTLFLQMNSLRAEDTAVYYCAKHQDYDFSYYYSAMDVWGQGTTVTVSS
VL: DIQMTQSPSSLSASVGDRVIITCRASQDFNSWLAWYQQKPGKAPKLLIYAASSLQSGVPSRFSGSGSGTDFTLTISSLQPEDFATYYCQQTDSFPFTFGPGTKVDIKR
notes: fully human; human IgG4 Fc with hinge S108P; also called mAb41450
With B1 the “IC50, soluble hHJV release (ELISA)” value [1] was 0.102 nM, the “Inhibition (%) of soluble hHJV release (ELISA)” value (“Inhibition (%)” below) [1] was > 99% and the “IC50, soluble hHJV release (ELISA)” value [2] was 0.0826 nM. The “Inhibition (%)” value [2] was 98.5%, the “Geometric Mean Fluorescence Intensity of cell surface hHJV, 50 nM mAb” value (“Geometric Mean Fluorescence Intensity” for short) [3] was 30700 and the “Median Fluorescence Intensity of cell surface hHJV, 50 nM mAb” value (“Median Fluorescence Intensity” for short) [3] was 40100. For the same binder, the “Geometric Mean Fluorescence Intensity” value [4] was 23700, the “Median Fluorescence Intensity” value [4] was 33600 and the “% inhibition, HEK293 bioassay, 30 min pre-incubation 25 C” value (“% inhibition, HEK293 bioassay” for short) [5] was 86%. For the same binder, the “IC50, HEK293 bioassay, 30 min pre-incubation 25 C” value (shortened to “IC50, HEK293 bioassay”) [5] was 3 nM.

B2: REGN7977 (antibody, V domains shown)
VH: EVQLVESGGGLVKPGGSLRVSCAASGVTFSNVWMSWVRQVPGKGLEWVGRIKSKTDGGTTDYAAPVKGRFTISKDDSKNTLFLQMNSLKTEDTAVYYCTTETGDFWSGYYPRFQHWGQGTLVTVSS
VL: DIQMTQSPSSLSASVGDRVTITCRASQYISTYLNWYQQKPGKAPSLLIYAASSLQSGVPSRFSGSGSGTDFTLTISSLQPEDFASYSCQQSYSTPPYTFGQGTKLEIKR
notes: fully human; human IgG4 Fc with hinge S108P; also called mAb41465
With B2 the “IC50, soluble hHJV release (ELISA)” value [1] was 0.127 nM, the “Inhibition (%)” value [1] was > 99% and the “Inhibition (%)” value [2] was 46.4%. For the same binder, the “Geometric Mean Fluorescence Intensity” value [3] was 49000, the “Median Fluorescence Intensity” value [3] was 63800 and the “Geometric Mean Fluorescence Intensity” value [4] was 9130. For the same binder, the “Median Fluorescence Intensity” value [4] was 7030, the “% inhibition, HEK293 bioassay” value [5] was 86% and the “IC50, HEK293 bioassay” value [5] was 3.6 nM.

B3: REGN7974 (antibody, human IgG4 S228P, kappa, V domains shown)
VH: EVQLVESGGGLVQPGRSLRLSCIASGFNFGDYGMSWVRQAPGKGLEWVGFIRSKAYGGTTEYAASVKGRFTISRDDSKSIAYLQMNSLKTEDAAMYYCSRDYYDILTGYYGDYWGQGTLVTVSS
VL: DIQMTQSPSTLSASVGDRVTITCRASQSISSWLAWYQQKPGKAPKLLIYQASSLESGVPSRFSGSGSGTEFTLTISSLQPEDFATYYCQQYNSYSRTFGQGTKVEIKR
notes: fully human; human IgG4 Fc with hinge S108P; also called mAb41422
In the case of B3, the “IC50, soluble hHJV release (ELISA)” value [1] is reported as 0.154 nM, the “Inhibition (%)” value [1] is reported as > 99% and the “Inhibition (%)” value [2] is reported as 11.8%. For the same binder, the “Geometric Mean Fluorescence Intensity” value [3] was 40900, the “Median Fluorescence Intensity” value [3] was 56700 and the “Geometric Mean Fluorescence Intensity” value [4] was 6960. The “Median Fluorescence Intensity” value [4] was 6220, the “% inhibition, HEK293 bioassay” value [5] was 86% and the “IC50, HEK293 bioassay” value [5] was 5.1 nM.

B4: REGN7969 (antibody, human IgG4 S228P, kappa, V domains shown)
VH: QVQLVESGGGVVQPGRSLRLSCAASGFTFNNYGMHWVRQAPGKGLEWVAIISYDGSNEYYSDSVKGRFTISRDNSKNTLYLQMNSLRAEDTAVYYCARDQDYGGNLFHYWGQGTLVTVSS
VL: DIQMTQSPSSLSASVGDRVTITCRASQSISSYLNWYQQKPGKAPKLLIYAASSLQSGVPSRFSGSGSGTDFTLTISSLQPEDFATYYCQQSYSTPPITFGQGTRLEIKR
notes: fully human; human IgG4 Fc with hinge S108P; also called mAb37746
For B4, the “IC50, soluble hHJV release (ELISA)” value [1] was 0.0712 nM, the “Inhibition (%)” value [1] was > 99% and the “Inhibition (%)” value [2] was < 1%. The “Geometric Mean Fluorescence Intensity” value [3] was 47900, the “Median Fluorescence Intensity” value [3] was 67500 and the “Geometric Mean Fluorescence Intensity” value [4] was 8390. For the same binder, the “Median Fluorescence Intensity” value [4] was 7810, the “% inhibition, HEK293 bioassay” value [5] was 87% and the “IC50, HEK293 bioassay” value [5] was 1.9 nM.

B5: REGN7971 (antibody, human IgG4 S228P, kappa, V domains shown)
VH: B4 VH with N30S, N31T, E58D, S61L, S85N, R98K, D101G, H108A, Y109S
VL: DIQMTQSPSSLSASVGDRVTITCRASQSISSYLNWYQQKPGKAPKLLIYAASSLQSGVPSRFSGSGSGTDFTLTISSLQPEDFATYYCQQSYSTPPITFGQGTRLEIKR
notes: fully human; human IgG4 Fc with hinge S108P; also called mAb37763
With B5 the “IC50, soluble hHJV release (ELISA)” value [1] was 0.0774 nM, the “Inhibition (%)” value [1] was 89.9% and the “Inhibition (%)” value [2] was 10.2%. The “Geometric Mean Fluorescence Intensity” value [3] was 61800, the “Median Fluorescence Intensity” value [3] was 84400 and the “Geometric Mean Fluorescence Intensity” value [4] was 8230. For the same binder, the “Median Fluorescence Intensity” value [4] was 7470, the “% inhibition, HEK293 bioassay” value [5] was 86% and the “IC50, HEK293 bioassay” value [5] was 0.97 nM.

B6: REGN8023 (antibody, human IgG4 S228P, kappa, V domains shown)
VH: EVQLVESGGGLVKPGGSLRISCAASGFIFVDYAMHWVRQAPGKGLEWVSGISWNSGSIGYADSVKGRFTISRDNAKKSLYLQMSGLRPEDTALYYCVKSGFYYVRSYFDNWGQGTLVTVSS
VL: DIVMTQSPLSLPVTPGEPASISCRSSQSLLDSDDGNTYLDWYLRKPGQSPQLLIYTLSYRASGVPDRFSGSGSGTDFTLKISRVEADDVGVYYCMQRIEFPLTFGGGTKVEIKR
notes: fully human; human IgG4 Fc with hinge S108P; also called mAb37699
B6 was tested, and the “IC50, soluble hHJV release (ELISA)” value [1] was 0.149 nM, the “Inhibition (%)” value [1] was > 99% and the “IC50, soluble hHJV release (ELISA)” value [2] was 0.274 nM. The “Inhibition (%)” value [2] was 42%, the “Geometric Mean Fluorescence Intensity” value [3] was 55500 and the “Median Fluorescence Intensity” value [3] was 77800. For the same binder, the “Geometric Mean Fluorescence Intensity” value [4] was 19000, the “Median Fluorescence Intensity” value [4] was 19400 and the “% inhibition, HEK293 bioassay” value [5] was 90%. For the same binder, the “IC50, HEK293 bioassay” value [5] was 0.36 nM.
